In US20240270821A1, “GIP/GLP1/GCG TRI-RECEPTOR AGONISTS AND USES THEREOF” (priority 2023, published 2024) one finds cAMP Rel EC50, nM (1% HSA), Relative cAMP EC50 and cAMP Rel EC50 (in the presence of 1% HSA) data, which are given here for 14 molecules.

Starred links: 1 amine or outer side, 2 acyl side, 3 side chain; linkers in the order of their positions; H or OH if unused. Non-standard residues stand in square brackets, D forms with d. Groups on a side chain read outwards from the residue. No end group written: not given here. *: point of attachment. C18 diacid = O=C(O)CCCCCCCCCCCCCCCCC(=O)*; γGlu = O=C(O)[C@H](CCC(=O)[*:2])N[*:1]; αMe4Pal = C[C@](N)(Cc1ccncc1)C(=O)O; 4Pal = N[C@@H](Cc1ccncc1)C(=O)O; αMeL = CC(C)C[C@](C)(N)C(=O)O; Orn = NCCC[C@H](N)C(=O)O; Aib = CC(C)(N)C(=O)O

Common to all, as to test: cell-based or functional assay
Test [1] concerns the target T1, human GIP receptor (human) (UniProt P48546).
T1 sequence (looked up): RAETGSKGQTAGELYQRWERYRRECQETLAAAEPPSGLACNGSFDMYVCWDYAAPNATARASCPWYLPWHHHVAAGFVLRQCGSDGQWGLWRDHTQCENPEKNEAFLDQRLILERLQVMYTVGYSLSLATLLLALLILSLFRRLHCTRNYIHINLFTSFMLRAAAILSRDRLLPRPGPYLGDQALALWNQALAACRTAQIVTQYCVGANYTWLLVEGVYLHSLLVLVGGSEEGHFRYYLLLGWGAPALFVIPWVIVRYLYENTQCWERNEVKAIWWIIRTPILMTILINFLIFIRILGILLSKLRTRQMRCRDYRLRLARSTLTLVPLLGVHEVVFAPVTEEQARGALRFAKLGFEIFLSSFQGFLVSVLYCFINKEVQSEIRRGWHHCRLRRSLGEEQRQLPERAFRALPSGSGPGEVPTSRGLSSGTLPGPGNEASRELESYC

Test [2] addresses human glucagon receptor (human) (UniProt P47871).
The next test concerns the target hGLP-1R (Homo sapiens, UniProt P43220).

human glucagon receptor (human), sequence (P47871 26-477): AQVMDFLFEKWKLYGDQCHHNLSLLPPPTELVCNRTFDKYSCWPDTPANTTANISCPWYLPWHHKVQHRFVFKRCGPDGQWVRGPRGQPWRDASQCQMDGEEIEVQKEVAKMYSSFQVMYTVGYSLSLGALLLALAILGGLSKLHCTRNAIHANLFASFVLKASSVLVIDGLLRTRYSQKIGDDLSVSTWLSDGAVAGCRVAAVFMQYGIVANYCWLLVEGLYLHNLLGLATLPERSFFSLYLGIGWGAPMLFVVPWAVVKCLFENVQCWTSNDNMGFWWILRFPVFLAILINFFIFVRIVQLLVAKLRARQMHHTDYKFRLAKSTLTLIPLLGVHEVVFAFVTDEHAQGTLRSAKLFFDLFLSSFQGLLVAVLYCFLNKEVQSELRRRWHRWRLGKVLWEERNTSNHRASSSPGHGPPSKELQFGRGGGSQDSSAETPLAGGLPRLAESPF
hGLP-1R, sequence (P43220 24-463): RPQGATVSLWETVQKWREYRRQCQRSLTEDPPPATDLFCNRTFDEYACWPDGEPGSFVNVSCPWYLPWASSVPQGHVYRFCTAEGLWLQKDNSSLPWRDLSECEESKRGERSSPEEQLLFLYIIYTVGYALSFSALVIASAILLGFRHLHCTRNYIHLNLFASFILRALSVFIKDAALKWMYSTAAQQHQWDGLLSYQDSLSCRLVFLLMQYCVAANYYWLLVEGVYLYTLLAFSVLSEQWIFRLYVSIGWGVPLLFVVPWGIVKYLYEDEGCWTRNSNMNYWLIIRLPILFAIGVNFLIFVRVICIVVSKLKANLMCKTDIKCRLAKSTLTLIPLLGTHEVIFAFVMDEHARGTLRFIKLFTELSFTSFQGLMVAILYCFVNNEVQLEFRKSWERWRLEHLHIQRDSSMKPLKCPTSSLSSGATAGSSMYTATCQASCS

B1: Example 1022 (peptide)
chain: YXQGTFTSDXSQXLDXKAQXAFIEYLIEAGPSSGAPPPSGSE
modifications: not fully specified; Aib, 4Pal, αMeL, Orn, Me4Pal, acylated K, C-terminal amide; synthetic construct; SITE 2: note = 2-Aminoisobutyric Acid; SITE 10: note = 3-(4-Pyridyl)-L-alanine; SITE 13: note = alpha-methyl-leucine; SITE 16: note = L-ornithine; SITE 17: note = Lysine is chemically modified through conjugation of the epsilon-amino group of the Lysine side chain with (2-[2-(2-
Turning to B1, the cAMP Rel EC50, nM (1% HSA) in test [1] was determined as 27.9 nM; in test [2], 586 nM; with hGLP-1R, 203 nM.

B2: Example 1023 (peptide)
chain: YXQGTFTSDXSQXLDXKAQXAFIEYLIEAGPSSGAPPPSGSE
modifications: not fully specified; acylated lysine (γGlu)2-C18 diacid; non-natural residues; C-terminal amide; synthetic construct; SITE 2: note = 2-Aminoisobutyric Acid; SITE 10: note = 3-(4-Pyridyl)-L-alanine; SITE 13: note = alpha-methyl-leucine; SITE 16: note = L-ornithine; SITE 17: note = Lysine is chemically modified through conjugation of the epsilon-amino group of the Lysine side chain with (gamma-Gl)
For B2, the cAMP Rel EC50, nM (1% HSA) stood at 26 nM in test [1], 856 nM in test [2] and 230 nM in the test with hGLP-1R.

B3: Example 1012 (peptide)
chain: YXQGTFTSDXSXXLDXKAQXAFIEYLIAGGPSSGAPPPSESE
modifications: Aib, 4Pal, Orn, αMeL, Me4Pal; K (γGlu)2-C18 diacid; amide; synthetic construct; SITE 2: note = 2-Aminoisobutyric Acid; SITE 10: note = 3-(4-Pyridyl)-L-alanine; SITE 12: note = L-ornithine; SITE 13: note = alpha-methyl-leucine; SITE 16: note = L-ornithine; SITE 17: note = Lysine is chemically modified through conjugation of the epsilon-amino group of the Lys
Consider B3, for which the cAMP Rel EC50, nM (1% HSA) in test [1] came to 15.9 nM; in test [2], 533 nM; with hGLP-1R, 223 nM.

B4: Example 1025 (peptide)
chain: YXQGTFTSDXSQXLDKKAQXAFIEYLIEAGPSSGAPPPSGSE
modifications: synthetic construct; SITE 2: note = 2-Aminoisobutyric Acid; SITE 10: note = 3-(4-Pyridyl)-L-alanine; SITE 13: note = alpha-methyl-leucine; SITE 17: note = Lysine is chemically modified through conjugation of the epsilon-amino group of the Lysine side chain with (gamma-Glu)2-CO-(CH2)16-CO2H; SITE 20:
As to B4, the Relative cAMP EC50 in test [1] was 0.18 nM; in test [2], 3.22 nM; with hGLP-1R, 2.45 nM. Moreover, the cAMP Rel EC50, nM (1% HSA) stood at 31.5 nM in test [1], 625 nM in test [2] and 352 nM in the test with hGLP-1R.

B5: Example 1024 (peptide)
chain: YXQGTFTSDXSQXLDKKAQXAFIEYLIEAGPSSGAPPPSGSE
modifications: Aib, 4Pal, αMeL, Me4Pal; K acylated AEEA-(γGlu)2-C18 diacid; amide; synthetic construct; SITE 2: note = 2-Aminoisobutyric Acid; SITE 10: note = 3-(4-Pyridyl)-L-alanine; SITE 13: note = alpha-methyl-leucine; SITE 17: note = Lysine is chemically modified through conjugation of the epsilon-amino group of the Lysine side chain with (2-[2-(2-Amino-ethoxy)-ethoxy]-acetyl)
On to B5, for which the cAMP Rel EC50, nM (1% HSA) was 32.5 nM in test [1], 760 nM in test [2] and 330 nM with hGLP-1R.

B6: Example 1011 (peptide)
chain: YXQGTFTSDXSXXLDXKAQXAFIEYLIAGGPSSGAPPPSGSE
modifications: non-natural residues; Lys acylated C18 diacid; C-terminal amide; synthetic construct; SITE 2: note = 2-Aminoisobutyric Acid; SITE 10: note = 3-(4-Pyridyl)-L-alanine; SITE 12: note = L-ornithine; SITE 13: note = alpha-methyl-leucine; SITE 16: note = L-ornithine; SITE 17: note = Lysine is chemically modified through conjugation of the epsilon-amino group of the Lys
As to B6, the cAMP Rel EC50, nM (1% HSA) in test [1] was found to be 13.5 nM; in test [2] it was 459 nM; with hGLP-1R, 148 nM.
In the same order, the values of Y[Aib]QGTFTSD[4Pal]SQ[αMeL]LD[Orn]KK([Glu-γGlu-C18 diacid])AQ[αMe4Pal]AFIEYLIAGGPSSGAPPPSGSEE-NH2 [Example 1032] are 21.9 nM, 900 nM and 148 nM.

B7: Example 1013 (peptide)
chain: YXQGTFTSDXSXXLDXKAQXAFIEXLIEGGPSSGAPPPSGS
modifications: Aib, 4Pal, Orn, αMeL, Me4Pal, αMeY, (γGlu)2-C18 diacid, amide; synthetic construct; SITE 2: note = 2-Aminoisobutyric Acid; SITE 10: note = 3-(4-Pyridyl)-L-alanine; SITE 12: note = L-ornithine; SITE 13: note = alpha-methyl-leucine; SITE 16: note = L-ornithine; SITE 17: note = Lysine is chemically modified through conjugation of the epsilon-amino group of the Lys
In the case of B7, the cAMP Rel EC50, nM (1% HSA) in test [1] was determined as 22.6 nM; in test [2], 285 nM; with hGLP-1R, 137 nM.

B8: Example 1016 (peptide)
chain: YXQGTFTSDXSQXLDXKAQXAFIEYLIEAGPSSGAPPPSGS
modifications: not fully specified; Aib, 4Pal, αMeL, Orn, Me4Pal, D-Ala; acylated Lys; C-terminal amide; synthetic construct; SITE 2: note = 2-Aminoisobutyric Acid; SITE 10: note = 3-(4-Pyridyl)-L-alanine; SITE 13: note = alpha-methyl-leucine; SITE 16: note = L-ornithine; SITE 17: note = Lysine is chemically modified through conjugation of the epsilon-amino group of the Lysine side chain with (2-[2-(2-
As to B8, the cAMP Rel EC50, nM (1% HSA) in test [1] worked out at 30.6 nM; in test [2], 626 nM; in the test with hGLP-1R, 156 nM.

B9: Example 1015 (peptide)
chain: YXQGTFTSDXSXXLDKKAQXAFIEXLIAGGPSSGAPPPEGS
modifications: non-natural residues (Aib, 4Pal, Orn, Me4Pal, αMeY); lipidated K; amide; synthetic construct; SITE 2: note = 2-Aminoisobutyric Acid; SITE 10: note = 3-(4-Pyridyl)-L-alanine; SITE 12: note = L-ornithine; SITE 13: note = alpha-methyl-leucine; SITE 17: note = Lysine is chemically modified through conjugation of the epsilon-amino group of the Lysine side chain with (gamma-Gl)
As for B9, the cAMP Rel EC50, nM (1% HSA) in test [1] was 9.08 nM; in test [2], 357 nM; with hGLP-1R, 92.4 nM.

B10: Example 1019 (peptide)
chain: YXQGTFTSDXSQXLDXKAQXAFIEYLIEAGPSSGEPPPSGS
modifications: not fully specified; non-natural residues, (γGlu)2-C18 diacid lysine acylation, C-terminal amide; synthetic construct; SITE 2: note = 2-Aminoisobutyric Acid; SITE 10: note = 3-(4-Pyridyl)-L-alanine; SITE 13: note = alpha-methyl-leucine; SITE 16: note = L-ornithine; SITE 17: note = Lysine is chemically modified through conjugation of the epsilon-amino group of the Lysine side chain with (gamma-Gl)
Turning to B10, the Relative cAMP EC50 in test [1] was found to be 0.169 nM; in test [2], 4.36 nM; with hGLP-1R, 1.33 nM. Also, the cAMP Rel EC50, nM (1% HSA) turned out to be 21.3 nM in test [1], 579 nM in test [2] and 161 nM in the test with hGLP-1R.

B11: Example 1017 (peptide)
chain: YXQGTFTSDXSQXLDXKAQXAFIEYLIEAGPSSGAPPPSGS
modifications: not fully specified; Aib, 4Pal, αMeL, Orn, Me4Pal, D-Ala; acylated Lys; amide; synthetic construct; SITE 2: note = 2-Aminoisobutyric Acid; SITE 10: note = 3-(4-Pyridyl)-L-alanine; SITE 13: note = alpha-methyl-leucine; SITE 16: note = L-ornithine; SITE 17: note = Lysine is chemically modified through conjugation of the epsilon-amino group of the Lysine side chain with (gamma-Gl)
B11: the cAMP Rel EC50, nM (1% HSA) in test [1] worked out at 28.3 nM; in test [2], 649 nM; in the test with hGLP-1R, 118 nM.

B12: Example 1014 (peptide)
chain: YXQGTFTSDXSXXLDKKAQXAFIEXLIAGGPSSGEPPPSGS
modifications: Aib, 4Pal, Orn, αMeL, Me4Pal, αMeY; γGlu2-C18 diacid Lys; amide; synthetic construct; SITE 2: note = 2-Aminoisobutyric Acid; SITE 10: note = 3-(4-Pyridyl)-L-alanine; SITE 12: note = L-ornithine; SITE 13: note = alpha-methyl-leucine; SITE 17: note = Lysine is chemically modified through conjugation of the epsilon-amino group of the Lysine side chain with (gamma-Gl)
For B12, the Relative cAMP EC50 in test [1] amounted to 0.0412 nM; in test [2] it was 3.62 nM; with hGLP-1R it was 0.718 nM. In addition, the figures for the cAMP Rel EC50, nM (1% HSA) (in test [1]; in test [2]; with hGLP-1R) were 5.62 nM, 277 nM and 86.4 nM, respectively.

B13: Example 6 (peptide)
chain: YXQGTFTSDFSKXLDKKAQXAFIEYLLAGGPSSGEPPPSGG
modifications: Aib, αMeL; Lys acylated; C-terminal amide; synthetic construct; SITE 2: note = 2-Aminoisobutyric Acid; SITE 13: note = alpha-methyl-leucine; SITE 17: note = Lysine is chemically modified through conjugation of the epsilon-amino group of the Lysine side chain with (2-[2-(2-Amino-ethoxy)-ethoxy]-acetyl)-(gamma-Glu)-CO-(CH2) 18-CO2H; SITE 20: n
As to B13, the Relative cAMP EC50 in test [1] is 0.232 nM; in test [2], 6.89 nM; with hGLP-1R, 1.95 nM. Further, the cAMP Rel EC50 (in the presence of 1% HSA) in test [1] came to 46.6 nM; in test [2], 1380 nM; with hGLP-1R, 446 nM.
